Results published in paper PMC7530888.

Target: GST-tagged MtbXthA (M. tuberculosis class II AP-endonuclease/3'-5' exonuclease XthA) (M. tuberculosis) (UniProt P96273)
Assay: SPR

**Q.** With “BRCT domain of MtbLigA, His-tagged (from UniProt P9WNV1 1-691) (domain or fragment)” as the substance, how does the Kd read?
**A.** 67.7 nM
